From IntAct's records for PubMed 38029384 come the findings set out here.

Sequences and labels used below:
B1: Coiled-coil domain-containing protein 124 (Homo sapiens), Q96CT7 (parent)
chain: MPKKFQGENTKSAAARARRAEAKAAADAKKQKELEDAYWKDDDKHVMRKEQRKEEKEKRRLDQLERKKETQRLLEEEDSKLKGGKAPRVATSSKVTRAQIEDTLRRDHQLREAPDTAEKAKSHLEVPLEENVNRRVLEEGSVEARTIEDAIAVLSVAEEAADRHPERRMRAAFTAFEEAQLPRLKQENPNMRLSQLKQLLKKEWLRSPDNPMNQRAVPFNAPK

Test [1] covers variants of B1. To be noted: with npm_human NPM1, P06748.
Variants of B1 are the subject of test [2]. To be noted: with npm_human NPM1, P06748. The source holds these as a separate data set.

Sequence of npm_human NPM1, P06748 (P06748 whole entry): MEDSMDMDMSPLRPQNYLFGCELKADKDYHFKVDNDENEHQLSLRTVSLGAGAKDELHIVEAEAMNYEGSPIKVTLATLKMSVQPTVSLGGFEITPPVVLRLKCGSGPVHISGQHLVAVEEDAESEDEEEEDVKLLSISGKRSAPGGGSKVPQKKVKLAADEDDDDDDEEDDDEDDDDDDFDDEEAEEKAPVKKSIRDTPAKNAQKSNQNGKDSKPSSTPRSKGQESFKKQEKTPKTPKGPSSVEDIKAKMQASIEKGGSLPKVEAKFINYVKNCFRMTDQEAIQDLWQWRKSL

In the case of MPKKFQGENTKSAAARARRAEAKAAADAKKQKELEDAYWKDDDKHVMRKEQRKEEKEKRRLDQLERKKETQRLLEEEDSKLKGGKAPRVATSSKVTRAQIEDTLRRDHQLREAPDTAEKAKAHLEVPLEENVNRRVLEEGAVEARTIEDAIAVLSVAEEAADRHPERRMRAAFTAFEEAQLPRLKQENPNMRLSQLKQLLKKEWLRSPDNPMNQRAVPFNAPK [S122A;S141A], the “effect of a mutation on the interaction” value is on record as “decreasing interaction strength” in test [1] and “with no effect” in test [2].

For the variant MPKKFQGENTKSAAARARRAEAKAAADAKKQKELEDAYWKDDDKHVMRKEQRKEEKEKRRLDQLERKKETQRLLEEEDSKLKGGKAPRVATSSKVTRAQIEDTLRRDHQLREAPDTAEKAKSHLEVPLEENVNRRVLEEGAVEARTIEDAIAVLSVAEEAADRHPERRMRAAFTAFEEAQLPRLKQENPNMRLSQLKQLLKKEWLRSPDNPMNQRAVPFNAPK [S141A], the “effect of a mutation on the interaction” value in test [1] is reported as “decreasing interaction strength”; in test [2], “with no effect”.

As to MPKKFQGENTKSAAARARRAEAKAAADAKKQKELEDAYWKDDDKHVMRKEQRKEEKEKRRLDQLERKKETQRLLEEEDSKLKGGKAPRVATSSKVTRAQIEDTLRRDHQLREAPDTAEKAKAHLEVPLEENVNRRVLEEGSVEARTIEDAIAVLSVAEEAADRHPERRMRAAFTAFEEAQLPRLKQENPNMRLSQLKQLLKKEWLRSPDNPMNQRAVPFNAPK [S122A], the “effect of a mutation on the interaction” value in test [1] is “decreasing interaction strength”; in test [2] it was “disrupting interaction strength”.
